In the supplement of paper PMC10567573:

B1: LOXL2 (parent)
chain: FSPDGPSRFRKAYKPEQPLVRLRG

Variants of: B1
Test: protein stability index of a GFP-peptide fusion (GPS, HEK-293T) (PSI 1-6); higher = more stable
Conditions: c terminus: a fixed tail appended
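Further: lentivirally expressed fusions sorted by FACS into six bins by GFP to DsRed ratio, PSI derived from sequencing read proportions per bin multiplied by bin number.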

Protein stability index of substitutions, site by site:
G24: W 2.07 | M 2.72 | K 1.69 | Y 1.85 | Q 2.72 | F 1.73 | V 2.73 | R 2.79 | T 1.38 | I 1.44 | N 1.91 | H 1.52 | S 1.41 | P 1.82 | L 3.27
